Results reported in patent publication US12269859B2, “Synthetic immune receptors and methods of use thereof” (Angeles Therapeutics, Inc., priority 2016, dated 2025).

Tested on: target antigen-expressing cell line
Test: Jurkat NFAT-GFP assay, coculture with target cell lines expressing the respective target antigen (summary Table 10A)
Type: cell-based, human
Parameters: key: The signs +/−, +, 2+ etc. after the name of the cell lines indicate the relative degree of positivity on the Jurkat-NFAT-GFP assay as measured by the % GFP positive cells; +: relative degree of positivity on the Jurkat-NFAT-GFP assay as measured by the % GFP positive cells; 2+: relative degree of positivity on the Jurkat-NFAT-GFP assay as measured by the % GFP positive cells
Conditions: relative % GFP positive cells; for NFAT-GFP ASSAY Positive Cell lines: LAN5: SIR-expressing Jurkat-NFAT-GFP cells cocultured with LAN5; for NFAT-GFP ASSAY Positive Cell lines: RAJI: SIR-expressing Jurkat-NFAT-GFP cells cocultured with RAJI
Method: (B) Induction of NFAT promoter driven GFP expression. The control vector- and SIR-expressing Jurkat-NFAT-GFP cocultured for 4-24 hours with the target antigen-expressing cell line (described above) and their ability to bind to the target antigen is assayed by measuring induction of GFP expression using Flow Cytometry. Cellular supernatant is collected and assayed for the induction of cytokines (e.g., IL2).
Jurkat NFAT-GFP Assay For Synthetic Immune Receptors. The Jurkat-NFAT-GFP cells are engineered in such a way that the IL-2 promoter, which carries NFAT binding sites, is cloned upstream of the GFP gene. These cells have been used to study signaling via TCR and CAR. The different SIRs were stably expressed in Jurkat NFAT-GFP cells by lentiviral mediated gene transfer, followed by selection with puromycin. The SIR-expressing Jurkat-NFAT-GFP cells were cocultured with the target cells at E:T ratio of approximately 1:2 for approximately 4 hours to 18 hours. When the interaction between SIRs and their target antigen results in activation of the NFAT pathway, GFP expression is induced.
Induction of GFP expression by coculturing of Jurkat-NFAT-GFP cells expressing different SIR constructs and the different target cells was studied essentially as described previously (Wu, Roybal, Puchner, Onuffer, & Lim, 2015). GFP expression was monitored by FACS analysis. A few representative examples of this assay are shown in the FIG. 13A-B. In panel A, control Jurkat-NFAT-GFP cells or those expressing SIRs targeting CD19 (clone ID 051716-I08), MPL (Clone ID: 040716-A07) and BCMA (Clone ID: 011116-A07) were incubated with RAJI (top), HEL (middle) or U266 (bottom) cells, respectively. […] In panel B, Jurkat cells expressing SIR targeting CDH6 (Clone ID: 051716-J05), CD276 (Clone ID: 050516-Q06) and Her2/neu (Clone ID: 050516-I03) were incubated with SKOV3 (top) and […] (middle and bottom) cells, respectively. […] The Jurkat-NFAT-GFP cells were engineered to express different SIRs targeting other antigens and the experiment repeated upon coculture with the target cells expressing their respective target antigen. The Jurkat-NFAT-GFP (parental) cells were used as control. The names of different SIRs, their SEQ ID NOs, component antigen binding domains and TCR chains can be determined by reference to Tables 7A-7H. A SIR is considered positive in the assay in case the SIR expressing Jurkat-NFAT-GFP cells show greater % GFP positive cells when cultured with the target cell line as compared to parental Jurkat-NFAT-GFP cells. […] The signs +/−, +, 2+ etc. after the name of the cell lines indicate the relative degree of positivity on the Jurkat-NFAT-GFP assay as measured by the % GFP positive cells after culture of the SIR expressing Jurkat-NFAT-GFP cells with that cell line. […] In addition, great diversity of response against the same target cell line is observed with Jurkat cells expressing SIRs containing different antigen binding domains targeting the same antigen (e.g., SIRs having antigen binding domains derived form different CD19 antibodies) even when the SIRs share the same TCR chains and linkers. Finally, Jurkat cells expressing SIRs targeting different antigens (e.g. CD19 vs CD20) show a diversitiy of response when exposed to the same target cell line. Thus, a diverse immune response can be generated against a single target cell by combining SIRs with different TCR chains, linkers, antigen binding domains and target specificity. Table 10A also summarizes the results of GLuc based T cell cytotoxicity assay observed with different SIRs when exposed to their target cell lines. […]

Row | Molecule | NFAT-GFP ASSAY Positive Cell lines: LAN5 | NFAT-GFP ASSAY Positive Cell lines: RAJI
1 | 042916-C05 (protein, Synthetic Immune Receptor (SIR)) MALPVTALLLPLALLLHAARPLEGKPIPNPLLGLDSTGSGEDLKNVFPPEVAVFEPSKAEIAHTQKATLVCLATGFYPDHVELSWWVNGKEVHSGVCTDPQPLKEQPALNDSRYCLSSRLRVSATFWQNPRNHFRCQVQFYGLSENDEWTQDRAKPVTQIVSAEAWGRADCGITSASYHQGVLSATILYEILLGKATLYAVLVSALVLMAMVKRKDSRGRAKRSGSGATNFSLLKQAGDVEENPGPTSTMALPVTALLLPLALLLHAARPDVQMIQTPDSLAVSLGQRATISCRASESVDNYGISFMHWYQQKPGQSPKLLIYRASNLESGIPARFSGSGSRTDFTLTINPVETDDVATYYCQQNNKDPPTFGGGTKLEIKGGGGSGGGGSGGGGSGGGGSQVQLQQSGAELVKPGASVKISCKASGYAFSSYWMNWVKQRPGKGLEWIGQIYPGDGDTTYNGKFKGKATLTADKSSSTVYMQLNSLTSEDSAVYFCVRYYYGSSGYFDYWGQGTTLTVSSTREQKLISEEDGSGIQNPDPAVYQLRDSKSSDKSVCLFTDFDSQTNVSQSKDSDVYITDKCVLDMRSMDFKSNSAVAWSNKSDFACANAFNNSIIPEDTFFPSSDVPCDVKLVEKSFETDTNLNFQNLSVIGFRILLLKVAGFNLLMTLRLWSSRAKRSGSGVKQTLNFDLLKLAGDVESNPGPSRGHMTEYKPTVRLATRDDVPRAVRTLAAAFADYPATRHTVDPDRHIERVTELQELFLTRVGLDIGKVWVADDGAAVAVWTTPESVEAGAVFAEIGPRMAELSGSRLAAQQQMEGLLAPHRPKEPAWFLATVGVSPDHQGKGLGSAVVLPGVEAAERAGVPAFLETSAPRNLPFYERLGFTVTADVEVPEGPRTWCMTRKPGA | LAN5 (+/−) | 
2 | 052316-J03 (protein, Synthetic Immune Receptor (SIR)) MALPVTALLLPLALLLHAARPDEIVLTQSPATLSLSPGERATLSCSASSSVSYMHWYQQKPGQAPRLLIYDTSKLASGIPARFSGSGSGTDFTLTISSLEPEDVAVYYCFQGSVYPFTFGQGTKLEIKRGGGGSGGGGSGGGGSQVQLQESGPGLVKPSQTLSLTCTVSGGSISTSGMGVGWIRQHPGKGLEWIGHIWWDDDKRYNPALKSRVTISVDTSKNQFSLKLSSVTAADTAVYYCARMELWSYYFDYWGQGTLVTVSSTREQKLISEEDGSGIQNPDPAVYQLRDSKSSDKSVCLFTDFDSQTNVSQSKDSDVYITDKTVLDMRSMDFKSNSAVAWSNKSDFACANAFNNSIIPEDTFFPSPESSCDVKLVEKSFETDTNLNFQNLSVIGFRILLLKVAGFNLLMTLRLWSSRAKRSGSGVKQTLNFDLLKLAGDVESNPGPSRGHMTEYKPTVRLATRDDVPRAVRTLAAAFADYPATRHTVDPDRHIERVTELQELFLTRVGLDIGKVWVADDGAAVAVWTTPESVEAGAVFAEIGPRMAELSGSRLAAQQQMEGLLAPHRPKEPAWFLATVGVSPDHQGKGLGSAVVLPGVEAAERAGVPAFLETSAPRNLPFYERLGFTVTADVEVPEGPRTWCMTRKPGA |  | RAJI (+)
3 | 121515-X07 (protein, Synthetic Immune Receptor (SIR)) MALPVTALLLPLALLLHAARPLEGKPIPNPLLGLDSTGSGEDLKNVFPPEVAVFEPSKAEIAHTQKATLVCLATGFYPDHVELSWWVNGKEVHSGVCTDPQPLKEQPALNDSRYCLSSRLRVSATFWQNPRNHFRCQVQFYGLSENDEWTQDRAKPVTQIVSAEAWGRADCGITSASYHQGVLSATILYEILLGKATLYAVLVSALVLMAMVKRKDSRGRAKRSGSGATNFSLLKQAGDVEENPGPTSTMALPVTALLLPLALLLHAARPDEIVLTQSPATLSLSPGERATLSCSASSSVSYMHWYQQKPGQAPRLLIYDTSKLASGIPARFSGSGSGTDFTLTISSLEPEDVAVYYCFQGSVYPFTFGQGTKLEIKRGGGGSGGGGSGGGGSQVQLQESGPGLVKPSQTLSLTCTVSGGSISTSGMGVGWIRQHPGKGLEWIGHIWWDDDKRYNPALKSRVTISVDTSKNQFSLKLSSVTAADTAVYYCARMELWSYYFDYWGQGTLVTVSSTREQKLISEEDLGSGTPFPSLAPPIMLLVDGKQQMVVVCLVLDVAPPGLDSPIWFSAGNGSALDAFTYGPSPATDGTWTNLAHLSLPSEELASWEPLVCHTGPGAEGHSRSTQPMHLSGEASTARTCPQEPLRGTPGGALWLGVLRLLLFKLLLFDLLLTCSCLCDPAGPLPSPATTTRLRALGSHRLHPATETGGREATSSPRPQPRDRRWGDTPPGRKPGSPVRAKRSGSGVKQTLNFDLLKLAGDVESNPGPSRGHMTEYKPTVRLATRDDVPRAVRTLAAAFADYPATRHTVDPDRHIERVTELQELFLTRVGLDIGKVWVADDGAAVAVWTTPESVEAGAVFAEIGPRMAELSGSRLAAQQQMEGLLAPHRPKEPAWFLATVGVSPDHQGKGLGSAVVLPGVEAAERAGVPAFLETSAPRNLPFYERLGFTVTADVEVPEGPRTWCMTRKPGA |  | RAJI (+)
4 | 052316-D03 (protein, Synthetic Immune Receptor (SIR)) MALPVTALLLPLALLLHAARPDEIVLTQSPATLSLSPGERATLSCSASSSVSYMHWYQQKPGQAPRLLIYDTSKLASGIPARFSGSGSGTDFTLTISSLEPEDVAVYYCFQGSVYPFTFGQGTKLEIKRGGGGSGGGGSGGGGSQVQLQESGPGLVKPSQTLSLTCTVSGGSISTSGMGVGWIRQHPGKGLEWIGHIWWDDDKRYNPALKSRVTISVDTSKNQFSLKLSSVTAADTAVYYCARMELWSYYFDYWGQGTLVTVSSLEDLKNVFPPEVAVFEPSEAEISHTQKATLVCLATGFYPDHVELSWWVNGKEVHSGVSTDPQPLKEQPALNDSRYCLSSRLRVSATFWQNPRNHFRCQVQFYGLSENDEWTQDRAKPVTQIVSAEAWGRADCGFTSESYQQGVLSATILYEILLGKATLYAVLVSALVLMAMVKRKDSRGRAKRSGSGATNFSLLKQAGDVEENPGPTSMDWIWRILFLVGAATGAHSFEGSGTREQKLISEEDGSGIQNPDPAVYQLRDSKSSDKSVCLFTDFDSQTNVSQSKDSDVYITDKCVLDMRSMDFKSNSAVAWSNKSDFACANAFNNSIIPEDTFFPSPESSCDVKLVEKSFETDTNLNFQNLSVIGFRILLLKVAGFNLLMTLRLWSSRAKRSGSGVKQTLNFDLLKLAGDVESNPGPSRGHMTEYKPTVRLATRDDVPRAVRTLAAAFADYPATRHTVDPDRHIERVTELQELFLTRVGLDIGKVWVADDGAAVAVWTTPESVEAGAVFAEIGPRMAELSGSRLAAQQQMEGLLAPHRPKEPAWFLATVGVSPDHQGKGLGSAVVLPGVEAAERAGVPAFLETSAPRNLPFYERLGFTVTADVEVPEGPRTWCMTRKPGA |  | RAJI (+)
5 | 042916-D02 (protein, Synthetic Immune Receptor (SIR)) MALPVTALLLPLALLLHAARPLEGKPIPNPLLGLDSTGSGEDLKNVFPPEVAVFEPSKAEIAHTQKATLVCLATGFYPDHVELSWWVNGKEVHSGVCTDPQPLKEQPALNDSRYCLSSRLRVSATFWQNPRNHFRCQVQFYGLSENDEWTQDRAKPVTQIVSAEAWGRADCGITSASYHQGVLSATILYEILLGKATLYAVLVSALVLMAMVKRKDSRGRAKRSGSGATNFSLLKQAGDVEENPGPTSTMALPVTALLLPLALLLHAARPDVQMIQTPSSLSASLGDRVTISCRASQDIGNYLNWYQQKPDGTVKLLIYYTSRLHSGVPSRFSGSGSGTEYSLTISNLEQEDIATYFCQQGSALPPTFGGGTKLEINGGGGSGGGGSGGGGSALQLQQSGAELVRPGASVTLSCKASGYTFTDYEMHWVKQTPVHGLEWIGAIDPETGGTAYNQKFEGKAILTADKSSSTAYMELRSLTSEDSPVYYCARRRYYGSSSFDYWGQGTTLTVSSTREQKLISEEDGSGIQNPDPAVYQLRDSKSSDKSVCLFTDFDSQTNVSQSKDSDVYITDKCVLDMRSMDFKSNSAVAWSNKSDFACANAFNNSIIPEDTFFPSSDVPCDVKLVEKSFETDTNLNFQNLSVIGFRILLLKVAGFNLLMTLRLWSSRAKRSGSGVKQTLNFDLLKLAGDVESNPGPSRGHMTEYKPTVRLATRDDVPRAVRTLAAAFADYPATRHTVDPDRHIERVTELQELFLTRVGLDIGKVWVADDGAAVAVWTTPESVEAGAVFAEIGPRMAELSGSRLAAQQQMEGLLAPHRPKEPAWFLATVGVSPDHQGKGLGSAVVLPGVEAAERAGVPAFLETSAPRNLPFYERLGFTVTADVEVPEGPRTWCMTRKPGA | LAN5 (2+) | 
